Laboratory results: the DeepSol protein solubility set

Assay: soluble on expression in E. coli; label from the status in PepcDB or PDB records
In the case of “MGVCFSAIRVTGASSSRRSSQTKSKAAPTPIDTKASTKRRTGSIPCGKRTDFGYSKDFHDHYTIGKLLGHGQFGYTYVAIHRPNGDRVAVKRLDKSKMVLPIAVEDVKREVQILIALSGHENVVQFHNAFEDDDYVYIVMELCEGGELLDRILSKKGNRYSEKDAAVVVRQMLKVAGECHLHGLVHRDMKPENFLFKSAQLDSPLKATDFGLSDFIKPGKRFHDIVGSAYYVAPEVLKRRSGPESDVWSIGVITYILLCGRRPFWDRTEDGIFKEVLRNKPDFSRKPWATISDSAKDFVKKLLVKDPRARLTAAQALSHAWVREGGNATDIPVDISVLNNLRQFVRYSRLKQFALRALASTLDEAEISDLRDQFDAIDVDKNGVISLEEMRQALAKDLPWKLKDSRVAEILEAIDSNTDGLVDFTEFVAAALHVHQLEEHDSEKWQLRSRAAFEKFDLDKDGYITPEELRMHTGLRGSIDPLLDEADIDRDGKISLHEFRRLLRTASISSQRAPSPAGHRNLR”, the “soluble on expression in E. coli” value was “soluble”.
With “MSLEWQDLAQLPVSIFKDYVTDAQDAEKPFIWTEVFLREINRSNQEIILHIWPMTKTVILGMLDRELPHLELAKKEIISRGYEPVVRNFGGLAVVADEGILNFSLVIPDVFERKLSISDGYLIMVDFIRSIFSDFYQPIEHFEVETSYCPGKFDLSINGKKFAGLAQRRIKNGIAVSIYLSVCGDQKGRSQMISDFYKIGLGDTGSPIAYPNVDPEIMANLSDLLDCPMTVEDVIDRMLISLKQVGFNDRLLMIRPDLVAEFDRFQAKSMANKGMVSRDEEGHHHHHH” the “soluble on expression in E. coli” value was “soluble”.
For “MGSDKIHHHHHHMKKYKNSLYVLALCGTMAACKPHIEEPSIDKGSLDVTKYVAVGNSITSGYADNALYYDGQQVSFANLLSGQFSKIGGGEFKQPLVSQTSVGVGSTGGARLKLALKTDCLGNTSLSPVPVAASGDLSIFGNIYSSAGPFNNMGVPGAKSVTTIYHGYGNPGNGLGKFNPFFTRMASNPATASILQDAMAQNPTFFTLFIGSNDVLLYALAGAANDSITPVAGGPGVGFDASMDAIVNTLVSGGAKGAIGNVPDITSLPYFTTVPYNGLVLTSQAQVDALNTAYTPFGITFHLGQNPFIIADAAAPGGRRQITSSEYVLLSVPQDSLKCNQWGSAKPIPNQYILTASEISNIRTAITNYNSKIKNLAAAHGLAFVDVNSFLMMAETGITYNGINLNTTFVSGGAFSLDGVHLTPIGNAMLANEFIKSINMTYGSTLPLIDATKYSGVKFP”, the “soluble on expression in E. coli” value was “not soluble”.
In the case of “VMNRMATALGGDYFDFISMPDGREVVFIGDVTGHDIQSSVVMSLVYGFLHHCALTVDDPLTMVSQLNRFLVRFADHGTELDHHFSSTLFLGIIDPASLRLEYVNAGHVPPLVLRRNSLHRLASTSPPVGFFAEAEVATGCFGLERGDRLLLYTDGILDASNGTETFGAERLDAFLTATGGSYTRFMDELAAALRDFGAGDPPDDDCSAIVIDI”, the “soluble on expression in E. coli” value was “not soluble”.
In the case of “MGSDKIHHHHHHMLELLEPIAIFTHVARAGSFSAAARRLGISKSKVSTQVADLEHRLGVQLIQRTTRSLSLTEAGHLLYLQGEELLRDAEQAIASVHNLNDATRGVLKVGISQSFGVMHIIPALPSFMAKHPELELQVSLLDHKVDVVSEGLDLLLTMSEQLPLGMVARPLMKCQFLLVASPGYIAQHGEPTRPEQLVDHNCLVYQGEWHEHSMWQFKKGDDYCEIGVSGNFRVDNAPALKSAAISGLGVVYLASYLMEDEITKGTLVPLLKDWQLTHHLPLQAVYPRRKHLAPKVSSFIEFIKDHIGTPPYWDAPYVELFSKRQ”, the “soluble on expression in E. coli” value was “not soluble”.
In the case of “MGSDKIHHHHHHMIDARVKFRHLQTFVEVARQKSVVKAAELLHVTQPAVTKTIRELEEVLGVAVFEREGRGIKITRYGEVFLRHAGAALTALRQGLDSVSQERSGEGPPIRVGALPTVSTRIMPRAIALFLKEKTGARIKIVTGENAVLLEQLRIGDLDLVVGRLAAPDKMTGFSFEHLYSEQVVFAVRAGHPLISGRQSLFAHLSDYPVLMPTRASIIRPFVEHFLIANGIAGLPNQIETVSDSFGRAFVRSSDAIWIISAGVVATDIADGVLAALPVDTSETRGPVGLTMRTDAIPSLPLSILMQTLREVAGTAMAAEAKRTA”, the “soluble on expression in E. coli” value was “not soluble”.
For “PSIKSGTILHAWNWSFNTLKNNMKDIHDAGYTAIQTSPINQVKEGNKGDKSMGNWYWLYQPTSYQIGNRYLGSEEEFKEMCAAAEEYGVKVIVDAVINHTTSDYAAISNEIKSISNWTHGNTQIKNWSDRWDVTQNSLLGLYDWNTQNTQVQSYLKRFLERALNDGADGFRYDAAKHIELPDDGNYGSQFWPNITNTSAEFQYGEILQDSASRDAAYANYMNVTASNYGHSIRSALKNRNLSVSNISHYASDVSADKLVTWVESHDTYANDDEESTWMSDDDIRLGWAVIASRSGSTPLFFSRPDGGGNGVRFPGKTQIGDRGSALFEDQAIVAVNTFHNVMAGQPEELSNPNGNNQIFMNQRGSKGVVLANAGSSSVSINASTKLPDGSYDNKAGTGSFQVRDGKLTGTINARSVAVLYPD”, the “soluble on expression in E. coli” value was “soluble”.
With “MSLYPEKRDGFSRTGKFEVEGRTVQTPAILEVGEIPEWDFGLAPTSLKFISEELYSRLRPINEEVEILTSLHLLSPRQLVQVFEDLSKEGVSPKPLYAASSALPSNVSLLIYLGADLVDNVLAIAKAYSGIYFLGEVEVEISKLRRLPCNCIHCRNRVVDEVENLLETTAKHNTEMLRMEVEKCRRLILNEELRNYVEGKVKLNPEFTAALRLSDSLRNHSTFPRFRKSRCNFSALESSSRFEVRYFFERALECYKPFSDTVLLLPCTARKPYLTSRTHRALRSKVKVNVNEIIISSPLVVPREFELLYPAVNYDTPVTGHWSEEEVSFVAGWLKRFIEKGGFRKVVAHVTGGYRKVVERVEDEVEAEVVYTAEKDVLSDESIERLKQEIESKGKVDLYRRILEHMLSYQFGITWSGKVAGRYPELELLEGKKRLARVDRIYGMLDIYEKIAAYLLEKNIYTVEIGDFEVKGTIFAGGVLRADEKIRPNDVVVFHNSRIFGVGLAAMSGKEMAGSEKGIAINVKRKFSEGHHHHHH” the “soluble on expression in E. coli” value was “soluble”.
In the case of “MTTGNNDFYYSNKYEDDEFEYRHVHVTKDVSKLIPKNRLMSETEWRSLGIQQSPGWMHYMIHGPERHVLLFRRPLAATQKTGGNVRSGNAVGVR”, the “soluble on expression in E. coli” value was “not soluble”.
With “MSTAQAVKIGIAEMEVVIAPNVIRTCGLGSCVGVVIYDAGKAVAGMAHVMLPHSSMARGGVINAAKYADTAVEALVQLVIAAGGRKGMLKAKLAGGAQMFSFSTVGGDMMRIGARNVEEVKKQLERLHIPVVAEDVGGHSGRTIEFNPQTGVLSIRTAAQEIKEI” the “soluble on expression in E. coli” value was “not soluble”.
For “MGSDKIHHHHHHMQIEFYRRKYGRGCRPHLSLCIEGQHYHVDTSPADYGMNLITHAHTDHYGQRNMDNSRAVASRESAAILEACTGKVFSGVTFEVGSRIRLSDTKIKTYPTYHMHGSAAFYFQDSDILITGDVKDYSKLPKCKILVTEATYGHPSHIFEEEVEKLLKVASSNKAVFGAYPIGKAQRVAEILSKDGFGFSAEEKIARICSAVGLKPSDGPLIASPRNLPLYGGGYILTAHKFYRWPRITLSDHLDYRGILEMIDHCEPEEVLFYHGKPSKRLLEHLKNEGIVCRTLNDLPVMK”, the “soluble on expression in E. coli” value was “not soluble”.
With “MGSDKIHHHHHHMVGENMDIFVSDYEKQYKEILTGFDPTTFSETWVENQQWQLDFYVEKTRNNQDVFDLLNHESSVYLDGQEFVVKQLKRGAVGKIVYSEVTATHIYFTMQDDYQYNAISGSKSAKDCLTHIFAADKQGFSFELIDKNKVLENITQENFGNGNLLKLVQEVLEDYKLVMLADNKRLTFIPSEDYGEHTENEIRYNKHTNEVDFDIDTLSLRTQIKGYGKVDSNGNNYFPPVTFTSPESAKWGVRIQEPLSDERYTTSSSMLRRLKLELQDYPATTGNISLKLKYECGKGDYVMFVYEPLGLLYEVQIVAYKKYIFTNKPPELTLSNNKKTMVSIMVQLAKAIKRGAK” the “soluble on expression in E. coli” value was “not soluble”.
For “MDDSTLTELEAAAFRRLVAHLRERTDVQNIDLMNLAGFCRNCLSNWLKDAADAQGVAMSRDESREAVYGMPYETWKAKYQSTATPDQVEAFKKSHPHSH”, the “soluble on expression in E. coli” value was “not soluble”.
With “MGSDKIHHHHHHMSTDNYYIRRRLLSSLTAHLDQPEITVLVGPRQSGKTTILKRLESELRAGGRKTLWLNLDFEDDFRHVASEGALLQKIQLELGSGGGVVFIDEIQRRENAGLFLKGLYDQGLPWKFVVSGSGSIELKEKISESLVGRKRLFELSTVSFGEFADFRTGYRYTDRLRDYFRTEPSKTDQLFREYLMYGGYPRVVLADTHQEKMATINEIFRSYLEKDIVYLLRVEKSESFSNLVRVLATQSGKMVSYSELSATLGLSLATVKLYLWYLEKTYIIDKVTPWYTNIRKEITKAPVYYFRDIGLRNFAAGSFGALSDSEAGFAFQNVIHAMLKERFPLADSTIHYWRTKDKAEVDFVLRSGDTVTPLEVKYRDMKKLDVRRSFLGFLTRYHPEFGYIVNRNYSDEALICQTRVRCLPYWELMFEEAFP” the “soluble on expression in E. coli” value was “not soluble”.
In the case of “MRVAVVGATGAVGREILKVLEARNFPLSELRLYASPRSAGVRLAFRGEEIPVEPLPEGPLPVDLVLASAGGGISRAKALVWAEGGALVVDNSSAWRYEPWVPLVVPEVNREKIFQHRGIIANPNCTTAILAMALWPLHRAFQAKRVIVATYQAASGAGAKAMEELLTETHRFLHGEAPKAEAFAHPLPFNVIPHIDAFQENGYTREEMKVVWETHKIFGDDTIRISATAVRVPTLRAHAEAVSVEFARPVTPEAAREVLKEAPGVEVVDEPEAKRYPMPLTASGKWDVEVGRIRKSLAFENGLDFFVVGDQLLKGAALNAVQIAEEWLKGA”, the “soluble on expression in E. coli” value was “soluble”.
With “MARVRIVAKKNGPYLLEVDGKVQTALCRCGHSNNKPYCDGTHARVGFQADEKVAFEAEFAAALEHHHHHH” the “soluble on expression in E. coli” value was “not soluble”.
For “MGSDKIHHHHHHVSYPANRTPDHLLESDRAAGFEISADFERFDQRNDIFTRAFWDERVKSKDTDAFFASYRMEAAPRRGDGFTQKDFALRNAAWLISDIVSERSAEEGLREGFQGAIRDDTPVAPDKADLGAPEAEAAEMKAVAKLFGADLVGITHFDARWHYSARPDVRTMEAVPNDLPEGLGQVIVMGHAMDADLVETYPSALAGAATGREYSHEAAIVMQVAAYVRNLGYRAVASMNDTALVIPYAIKAGLGEYGRNQMVLTPEFGPRVRFSKIFTDMPLAVDAPRAFGLKAYCEGCDVCAVACPVKALPFGAPEFGGKAPSALRGVKKWTSDAEACFGYWAKLRSDCAICMRVCPFTAPRAGWVDRLWYKLAVGVFGDTGRGIARKWAARRAKARVKPKDWWAALRS”, the “soluble on expression in E. coli” value was “not soluble”.
With “MKVSKIYTTIDAHVAGEPLRIITGGVPEIKGETQLERRAYCMEHLDYLREILMYEPRGHHGMYGCIITPPASAHADFGVLFMHNEGWSTMCGHGIIAVITVGIETGMFEVTGEKQKFIIDSPAGEVIAYATYSGSEVESVSFENVPSFVYKKDVPIKIDSYEFQVDIAFGGAFYAVVDSKEFGLKVDFKDLSAIQMWGGKIKHYIESKMEVKHPLEEGLKGIYGVIFSDDPKEKDATLRNVTIFADGQVDRSPCGTGTSARIATLFAKDALQKGEIFVHECITDGKFEGEVLSVTAVHTYEAVVPKVTGNAFITGFHQFVVDPRDDLNRGFLLGLEHHHHHH” the “soluble on expression in E. coli” value was “not soluble”.
With “MGSDKIHHHHHHMSFKDIQADFIEAIRRPDLPCPHGIAPQRMGVYRELFFNNVSGFVNSGFPVLKSLYGEAQWQAQLRQFFTEHDCQNPLFIGIAGEFLAFLSARERQVDEPPFLLELAHYEWLELVVATAMEQGDEAAFDDTALAQQAYLDARLGLASHARVAQYHFEVEKISPQYQPDTPLPSPCYFCLYRDSDDEVSFLKLNPMTAQLLAVLEANTGIKYIELLQKMQALYPNFDGQQLREGIAQVLGQMAVRGVVVQKLQ” the “soluble on expression in E. coli” value was “not soluble”.
In the case of “MTTKRKETRESVCYREIKKKIRNGELKPGDRLIENTLSEQLGISRTPIRKAIGMLAADGYVEYNDFRGAFVRDSIINKERYFEMTEILGLFLKQAIQKIRTKKISFNKMRVVAKLVEIERDVEPSDPAVYFEYEKWFVNDLLTYMKNNYYLKISNDFFNNIQEFGDEEVIKIAQNACVKTIANIQRFIDALEAQNYDECMAIIDQVIDAHVLVAYR”, the “soluble on expression in E. coli” value was “not soluble”.
